B1: h317 variant antibody, heavy chain S101A (antibody, V domains shown)
VH: EVQLVESGGGLVKPGGSLRLSCAASGFTFSSYDMSWVRQAPGKGLEWVATISGGGSYTYYPDSVKGRFTISRDNAKNSLYLQMNSLRAEDTAVYYCASPDASGVAYWGQGTLVTVSS
VL: DIVMTQSPLSLPVTPGEPASITCKASQDVETVVAWYLQKPGQSPRLLIYWASTRHTGVPDRFSGSGSGTDFTLKISRVEAEDVGVYYCQQYSRYPWTFGQGTKL
notes: Variant of h317
B2: h317 variant antibody, heavy chain Y57T (antibody, V domains shown)
VH: EVQLVESGGGLVKPGGSLRLSCAASGFTFSSYDMSWVRQAPGKGLEWVATISGGGSTTYYPDSVKGRFTISRDNAKNSLYLQMNSLRAEDTAVYYCASPDSSGVAYWGQGTLVTVSS
VL: DIVMTQSPLSLPVTPGEPASITCKASQDVETVVAWYLQKPGQSPRLLIYWASTRHTGVPDRFSGSGSGTDFTLKISRVEAEDVGVYYCQQYSRYPWTFGQGTKL
notes: Variant of h317
B3: h317 variant antibody, light chain H55Q (antibody, V domains shown)
VH: EVQLVESGGGLVKPGGSLRLSCAASGFTFSSYDMSWVRQAPGKGLEWVATISGGGSYTYYPDSVKGRFTISRDNAKNSLYLQMNSLRAEDTAVYYCASPDSSGVAYWGQGTLVTVSS
VL: DIVMTQSPLSLPVTPGEPASITCKASQDVETVVAWYLQKPGQSPRLLIYWASTRQTGVPDRFSGSGSGTDFTLKISRVEAEDVGVYYCQQYSRYPWTFGQGTKL
notes: Variant of h317
B4: h317 variant antibody, heavy chain Y106T (antibody, V domains shown)
VH: EVQLVESGGGLVKPGGSLRLSCAASGFTFSSYDMSWVRQAPGKGLEWVATISGGGSYTYYPDSVKGRFTISRDNAKNSLYLQMNSLRAEDTAVYYCASPDSSGVATWGQGTLVTVSS
VL: DIVMTQSPLSLPVTPGEPASITCKASQDVETVVAWYLQKPGQSPRLLIYWASTRHTGVPDRFSGSGSGTDFTLKISRVEAEDVGVYYCQQYSRYPWTFGQGTKL
notes: Variant of h317; also called YI06T
B5: h317 variant antibody, light chain K24R and Y94F (antibody, V domains shown)
VH: EVQLVESGGGLVKPGGSLRLSCAASGFTFSSYDMSWVRQAPGKGLEWVATISGGGSYTYYPDSVKGRFTISRDNAKNSLYLQMNSLRAEDTAVYYCASPDSSGVAYWGQGTLVTVSS
VL: DIVMTQSPLSLPVTPGEPASITCRASQDVETVVAWYLQKPGQSPRLLIYWASTRHTGVPDRFSGSGSGTDFTLKISRVEAEDVGVYYCQQYSRFPWTFGQGTKL
notes: Variant of h317; also called 24R(CDR1) 94F(CDR3)
B6: h317 variant antibody, light chain R93S (antibody, V domains shown)
VH: EVQLVESGGGLVKPGGSLRLSCAASGFTFSSYDMSWVRQAPGKGLEWVATISGGGSYTYYPDSVKGRFTISRDNAKNSLYLQMNSLRAEDTAVYYCASPDSSGVAYWGQGTLVTVSS
VL: DIVMTQSPLSLPVTPGEPASITCKASQDVETVVAWYLQKPGQSPRLLIYWASTRHTGVPDRFSGSGSGTDFTLKISRVEAEDVGVYYCQQYSSYPWTFGQGTKL
notes: Variant of h317
B7: h317 variant antibody, light chain K24R, T56S and S92N (antibody, V domains shown)
VH: EVQLVESGGGLVKPGGSLRLSCAASGFTFSSYDMSWVRQAPGKGLEWVATISGGGSYTYYPDSVKGRFTISRDNAKNSLYLQMNSLRAEDTAVYYCASPDSSGVAYWGQGTLVTVSS
VL: DIVMTQSPLSLPVTPGEPASITCRASQDVETVVAWYLQKPGQSPRLLIYWASTRHSGVPDRFSGSGSGTDFTLKISRVEAEDVGVYYCQQYNRYPWTFGQGTKL
notes: Variant of h317; also called 24R(CDR1) 56S(CDR2) 92N(CDR3)
B8: h317 variant antibody, light chain E30S (antibody, V domains shown)
VH: EVQLVESGGGLVKPGGSLRLSCAASGFTFSSYDMSWVRQAPGKGLEWVATISGGGSYTYYPDSVKGRFTISRDNAKNSLYLQMNSLRAEDTAVYYCASPDSSGVAYWGQGTLVTVSS
VL: DIVMTQSPLSLPVTPGEPASITCKASQDVSTVVAWYLQKPGQSPRLLIYWASTRHTGVPDRFSGSGSGTDFTLKISRVEAEDVGVYYCQQYSRYPWTFGQGTKL
notes: Variant of h317
B9: h317 variant antibody, heavy chain Y32A (antibody, V domains shown)
VH: EVQLVESGGGLVKPGGSLRLSCAASGFTFSSADMSWVRQAPGKGLEWVATISGGGSYTYYPDSVKGRFTISRDNAKNSLYLQMNSLRAEDTAVYYCASPDSSGVAYWGQGTLVTVSS
VL: DIVMTQSPLSLPVTPGEPASITCKASQDVETVVAWYLQKPGQSPRLLIYWASTRHTGVPDRFSGSGSGTDFTLKISRVEAEDVGVYYCQQYSRYPWTFGQGTKL
notes: Variant of h317
B10: h317 variant antibody, heavy chain Y32N (antibody, V domains shown)
VH: EVQLVESGGGLVKPGGSLRLSCAASGFTFSSNDMSWVRQAPGKGLEWVATISGGGSYTYYPDSVKGRFTISRDNAKNSLYLQMNSLRAEDTAVYYCASPDSSGVAYWGQGTLVTVSS
VL: DIVMTQSPLSLPVTPGEPASITCKASQDVETVVAWYLQKPGQSPRLLIYWASTRHTGVPDRFSGSGSGTDFTLKISRVEAEDVGVYYCQQYSRYPWTFGQGTKL
notes: Variant of h317
B11: h317 variant antibody, light chain R93N (antibody, V domains shown)
VH: EVQLVESGGGLVKPGGSLRLSCAASGFTFSSYDMSWVRQAPGKGLEWVATISGGGSYTYYPDSVKGRFTISRDNAKNSLYLQMNSLRAEDTAVYYCASPDSSGVAYWGQGTLVTVSS
VL: DIVMTQSPLSLPVTPGEPASITCKASQDVETVVAWYLQKPGQSPRLLIYWASTRHTGVPDRFSGSGSGTDFTLKISRVEAEDVGVYYCQQYSNYPWTFGQGTKL
notes: Variant of h317
B12: h317 variant antibody, light chain K24R, T56S and S92N with heavy chain D33S and G54S (antibody, V domains shown)
VH: EVQLVESGGGLVKPGGSLRLSCAASGFTFSSYSMSWVRQAPGKGLEWVATISGSGSYTYYPDSVKGRFTISRDNAKNSLYLQMNSLRAEDTAVYYCASPDSSGVAYWGQGTLVTVSS
VL: DIVMTQSPLSLPVTPGEPASITCRASQDVETVVAWYLQKPGQSPRLLIYWASTRHSGVPDRFSGSGSGTDFTLKISRVEAEDVGVYYCQQYNRYPWTFGQGTKL
notes: Variant of h317; also called L- 24R(CDR1) 56S(CDR2) 92N(CDR3); H- 33S(CDR1) 54S(CDR2)
B13: h317 variant antibody, light chain T56S (antibody, V domains shown)
VH: EVQLVESGGGLVKPGGSLRLSCAASGFTFSSYDMSWVRQAPGKGLEWVATISGGGSYTYYPDSVKGRFTISRDNAKNSLYLQMNSLRAEDTAVYYCASPDSSGVAYWGQGTLVTVSS
VL: DIVMTQSPLSLPVTPGEPASITCKASQDVETVVAWYLQKPGQSPRLLIYWASTRHSGVPDRFSGSGSGTDFTLKISRVEAEDVGVYYCQQYSRYPWTFGQGTKL
notes: Variant of h317
B14: h317 variant antibody, light chain H55A (antibody, V domains shown)
VH: EVQLVESGGGLVKPGGSLRLSCAASGFTFSSYDMSWVRQAPGKGLEWVATISGGGSYTYYPDSVKGRFTISRDNAKNSLYLQMNSLRAEDTAVYYCASPDSSGVAYWGQGTLVTVSS
VL: DIVMTQSPLSLPVTPGEPASITCKASQDVETVVAWYLQKPGQSPRLLIYWASTRATGVPDRFSGSGSGTDFTLKISRVEAEDVGVYYCQQYSRYPWTFGQGTKL
notes: Variant of h317
B15: h317 variant antibody, light chain K24R (antibody, V domains shown)
VH: EVQLVESGGGLVKPGGSLRLSCAASGFTFSSYDMSWVRQAPGKGLEWVATISGGGSYTYYPDSVKGRFTISRDNAKNSLYLQMNSLRAEDTAVYYCASPDSSGVAYWGQGTLVTVSS
VL: DIVMTQSPLSLPVTPGEPASITCRASQDVETVVAWYLQKPGQSPRLLIYWASTRHTGVPDRFSGSGSGTDFTLKISRVEAEDVGVYYCQQYSRYPWTFGQGTKL
notes: Variant of h317
B16: h317 variant antibody, heavy chain Y59A (antibody, V domains shown)
VH: EVQLVESGGGLVKPGGSLRLSCAASGFTFSSYDMSWVRQAPGKGLEWVATISGGGSYTAYPDSVKGRFTISRDNAKNSLYLQMNSLRAEDTAVYYCASPDSSGVAYWGQGTLVTVSS
VL: DIVMTQSPLSLPVTPGEPASITCKASQDVETVVAWYLQKPGQSPRLLIYWASTRHTGVPDRFSGSGSGTDFTLKISRVEAEDVGVYYCQQYSRYPWTFGQGTKL
notes: Variant of h317
B17: h317 variant antibody, light chain K24R, T56S and S92N with heavy chain G54S and Y59A (antibody, V domains shown)
VH: EVQLVESGGGLVKPGGSLRLSCAASGFTFSSYDMSWVRQAPGKGLEWVATISGSGSYTAYPDSVKGRFTISRDNAKNSLYLQMNSLRAEDTAVYYCASPDSSGVAYWGQGTLVTVSS
VL: DIVMTQSPLSLPVTPGEPASITCRASQDVETVVAWYLQKPGQSPRLLIYWASTRHSGVPDRFSGSGSGTDFTLKISRVEAEDVGVYYCQQYNRYPWTFGQGTKL
notes: Variant of h317; also called L- 24R(CDR1) 56S(CDR2) 92N(CDR3); H- 54S(CDR2) 59A(CDR2)
B18: h317 variant antibody, light chain K24R and T56S (antibody, V domains shown)
VH: EVQLVESGGGLVKPGGSLRLSCAASGFTFSSYDMSWVRQAPGKGLEWVATISGGGSYTYYPDSVKGRFTISRDNAKNSLYLQMNSLRAEDTAVYYCASPDSSGVAYWGQGTLVTVSS
VL: DIVMTQSPLSLPVTPGEPASITCRASQDVETVVAWYLQKPGQSPRLLIYWASTRHSGVPDRFSGSGSGTDFTLKISRVEAEDVGVYYCQQYSRYPWTFGQGTKL
notes: Variant of h317; also called 24R(CDR1) 56(2)
B19: h317 variant antibody, heavy chain Y59T (antibody, V domains shown)
VH: EVQLVESGGGLVKPGGSLRLSCAASGFTFSSYDMSWVRQAPGKGLEWVATISGGGSYTTYPDSVKGRFTISRDNAKNSLYLQMNSLRAEDTAVYYCASPDSSGVAYWGQGTLVTVSS
VL: DIVMTQSPLSLPVTPGEPASITCKASQDVETVVAWYLQKPGQSPRLLIYWASTRHTGVPDRFSGSGSGTDFTLKISRVEAEDVGVYYCQQYSRYPWTFGQGTKL
notes: Variant of h317
B20: h317 variant antibody, light chain S92N (antibody, V domains shown)
VH: EVQLVESGGGLVKPGGSLRLSCAASGFTFSSYDMSWVRQAPGKGLEWVATISGGGSYTYYPDSVKGRFTISRDNAKNSLYLQMNSLRAEDTAVYYCASPDSSGVAYWGQGTLVTVSS
VL: DIVMTQSPLSLPVTPGEPASITCKASQDVETVVAWYLQKPGQSPRLLIYWASTRHTGVPDRFSGSGSGTDFTLKISRVEAEDVGVYYCQQYNRYPWTFGQGTKL
notes: Variant of h317
B21: h317 variant antibody, light chain S92D (antibody, V domains shown)
VH: EVQLVESGGGLVKPGGSLRLSCAASGFTFSSYDMSWVRQAPGKGLEWVATISGGGSYTYYPDSVKGRFTISRDNAKNSLYLQMNSLRAEDTAVYYCASPDSSGVAYWGQGTLVTVSS
VL: DIVMTQSPLSLPVTPGEPASITCKASQDVETVVAWYLQKPGQSPRLLIYWASTRHTGVPDRFSGSGSGTDFTLKISRVEAEDVGVYYCQQYDRYPWTFGQGTKL
notes: Variant of h317
B22: h317 variant antibody, light chain K24R and S92N (antibody, V domains shown)
VH: EVQLVESGGGLVKPGGSLRLSCAASGFTFSSYDMSWVRQAPGKGLEWVATISGGGSYTYYPDSVKGRFTISRDNAKNSLYLQMNSLRAEDTAVYYCASPDSSGVAYWGQGTLVTVSS
VL: DIVMTQSPLSLPVTPGEPASITCRASQDVETVVAWYLQKPGQSPRLLIYWASTRHTGVPDRFSGSGSGTDFTLKISRVEAEDVGVYYCQQYNRYPWTFGQGTKL
notes: Variant of h317; also called 24R(CDR1) 92N(CDR3)

molecular target: T1, recombinant human PD-1 protein (NCBI accession No.: NP_005009.2, 21aa-167aa) (human, UniProt Q15116 21-167); assay: BLI Octet QKe, antibody on the sensor, single 100 nM PD-1
T1 construct: range 21-167; also called recombinant human PD-1 extracellular domain protein; PD-1-ECD
Procedure: Determination of the binding kinetics: the affinity of the antibody was determined with Octet QKe system from Fortebio using an assay of capturing biotin-labeled antibody with streptavidin. […] Both the binding and dissociating were conducted for 300 s.
The comparison of affinity between the variant antibodies and the parent antibody was performed using Octet QKe system supplied by Fortebio.

T1 sequence (Q15116 21-167 limits assumed, form in doubt): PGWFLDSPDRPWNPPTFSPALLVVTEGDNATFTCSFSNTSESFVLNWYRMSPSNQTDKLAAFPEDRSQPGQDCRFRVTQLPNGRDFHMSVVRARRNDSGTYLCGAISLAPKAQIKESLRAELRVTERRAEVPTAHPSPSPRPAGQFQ

Point of comparison: B3, Kd 14.2 nM. Against it:
- B1 — within 1.5-fold, 16.3 nM
- B2 — 4.3-fold higher, 61.2 nM
- B4 — 21-fold higher, 294 nM
- B5 — 2.7-fold lower, 5.32 nM
- B6 — 1.8-fold lower, 7.94 nM
- B7 — 4.9-fold lower, 2.91 nM
- B8 — the same, 14.2 nM
- B9 — 2.1-fold lower, 6.83 nM
- B10 — within 1.5-fold, 18.1 nM
- B11 — 2.6-fold higher, 36.4 nM
- B12 — 4.2-fold lower, 3.38 nM
- B13 — 4.7-fold lower, 3.02 nM
- B14 — 12-fold higher, 172 nM
- B15 — 14-fold lower, 1.02 nM
- B16 — 4.3-fold lower, 3.29 nM
- B17 — 4.9-fold lower, 2.88 nM
- B18 — 4.4-fold lower, 3.23 nM
- B19 — within 1.5-fold, 18.9 nM
- B20 — 4.1-fold lower, 3.49 nM
- B21 — 1.9-fold lower, 7.52 nM
- B22 — 3.4-fold lower, 4.17 nM

From US20230104769A1 (MABWELL SHANGHAI BIOSCIENCE, published 2023)
